Laboratory results: article PMC4372590, “Autonomously Folding Protein Fragments Reveal Differences in the Energy Landscapes of Homologous RNases H” (PLoS ONE, 2015)

Target: T1, T. thermophilus RNase H I_(core) fragment (T. thermophilus)
T1 chain: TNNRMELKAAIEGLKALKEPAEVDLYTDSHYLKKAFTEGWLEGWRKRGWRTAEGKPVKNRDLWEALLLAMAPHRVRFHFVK
Assay: AUC; equilibrium analytical ultracentrifugation (Beckman XL-I); 25, 50 and 100 uM samples; 24,500, 30,000 and 37,000 rpm; absorbance at 250 nm; global fit to a monomer-dimer equilibrium (dimer to monomers); room temperature, 20 mM sodium acetate pH 5.5, 50 mM potassium chloride
Conditions: both partners purified

B1: T. thermophilus RNase H I_(core) fragment (domain or fragment)
chain: T1 chain
modifications: Printed limits 43-122 use E. coli alignment numbering. The offset is +4 at the N-terminal end (R4=R8, W22=W26, D66=D70) and +5 after the one-residue insertion near 80, so 122=K127. The paper says …
  Kd: ~150 µM
  stoichiometry N: 2
